Assay results from the DeepSol protein solubility set.

test: soluble on expression in E. coli; label from the status in PepcDB or PDB records

| Sequence | soluble on expression in E. coli |
| --- | --- |
| MKAKTLGELRRTYPLEKLRRTVKDEARENLREKLRRGERLFPGIHGYEDTVIPALVQAILAKQNFILLGTRGQAKSRILRSLTSLLDEEVPALATELRDNPLHPISPEGKRLLEEAGDDAPIVWLSREDRYVEKLATPDTTVADLLGDMDPIKAARRGTGMADLESIHYGLLPRANRGIFAVNELADLAPKVQVALFNILEEGDVQIRGYPLRLPLDVWLVFTANPQDYTARGRIVTPLKDRIGSEIRTHYPRSLEEGARISAQEAYVPEGVLVPEWVRLSVEAVAFVAREDRRVDQTAGVSQRLAISLLEVVAASAERRALLHGGRPVARPLDLYQGLPAITGKLELEYEGELQGAERVAREIVQRAFGLVLPRYRLRTEPIVAHFEEGNLLTLPEGDVEEALKAMAGVPGLLEAARALAEGEAPEVLLSAGEFVLEGLVGRRKLSRGEATYQAAERPRSYGN | soluble |
| SKQESAAPNTPPTSQSPTPSAQFPRNDGDPQALWIFGYGSLVWRPDFAYSDSRVGFVRGYSRRFWQGDTFHRGSDKMPGRVVTLLEDHEGCTWGVAYQVQGEQVSKALKYLNVREAVLGGYDTKEVTFYPQDAPDQPLKALAYVATPQNPGYLGPAPEEAIATQILACRGFSGHNLEYLLRLADFMQLCGPQAQDEHLAAIVDAVGTMLPCFCPTEQALALV | soluble |
| MTEHPRAHTAHLRTARLELTPLDPAADARHLHHAYGDEEVMRWWTRPACADPAETERYLTSCAAAPGARLWTIRAPDGTVPGMAGLLGGTDVPGLTWLLRRDSWGHGYATEAAAAVVGHALEDGGLDRVEAWIEAGNRRSLAVAARVGLTERARLAQHYPHRPGPHEMVVLGKARAEEPLTTLAVITELPVRDVAATLRLVEAALGARTAFAIGDPPEFAEAALTPWSAGPRFRLAAVPGPGPVEPVRLHLDAAGTADSLHRRAVDAGARVDGPPVRRPWGRSEFVITLPEGHELTVSAPV | soluble |
| MGSDKIHHHHHHMNYLQIARNSLAAEQNALAKLSQNLNQQFNQVVELILNCEGRLVVGGIGKSGLIGKKMVATFASTGTPSFFLHPTEAFHGDLGMLKPIDIVMLISYSGESDDVNKLIPSLKNFGNKIIALTGNLNSTLAKHADYILDISVEREACPNNLAPTTSALVTLALGDALAVSLITARNFQPADFAKFHPGGSLGRRLLCRVKDQMQVRLPKVTENTNFTDCLTVMNEGRMGVALVMENENLKGIITDGDIRRALSANGTNTLNKTAKDLMTSNPKTINYNTYLSEAENFMKEKKIHSLVVVDDQNKVIGLVEFSS | not soluble |
| MGSDKIHHHHHHMDKLDFRSQDFSQTGKAMYELACELFPIPRSITGQGFRDSLEILNKTLGGGILKFHSIKSGTKVFDWIVPDEWNVKEAYIITPKGEKICDFKKHNLHLLNYSEAIDQEIELEELQDHLYSIEEMPDAIPYVTSYYKRRWGFCLTHNERKKLKKGKYKVYIDAKHDENGVLDYADFILPSTQNSKDEILISTYLCHPSMANNELSGPVVSIFLAKWLLGLKERRYNYRFVIIPETIGSIVYLSKHLECLKKHVKAGFVLSCLGDDHTYSLIHTVKENTLSDKVALHTLKNKENFKAFSFLDRGSDERQYNAPLVNLGIVGVCRTRYGDYDGYHNSKDDLNFISEKGLMGGLQSMQEMILNLEINAVYENTIVCEPNLGKRGLYHTLSTTNDIPLACNFLAYCDGENDIIDIANILNMQAYEFKELLEKIKFYGLVK | not soluble |
| MERVNHLLQRLLGNQRFKQRYEQMKRYILEHPDVQPFLRAHERQLSADAVDRSLMKLYEFIEQHGNCRQCPGLERCNNMLPGYHPNLVVNGGRIDVEYDRCPKKVQHDERKRQESLIQSMFMPREILRASLSDVDLNDDGRIKAIRFAERFVAEYEPGKKMKGLYLHGSFGVGKTYLLAAIANELAKRNVSSLIVYVPELFREIKHSLQDQTMNEKLDYIKKVPVLMLDDLGAEAMSSWVRDDVFGPILQYRMFENLPTFFTSNFDMQQLAHHLTYSQRGEEEKVKAARIMERIRYLAYPIEITGPNRREQNI | not soluble |
| AKFSAIITDKVGLHARPASVLAKEASKFSSNITIIANEKQGNLKSIMNVMAMAIKTGTEITIQADGNDADQAIQAIKQTMIDTALIQG | soluble |
| MRLRLALFSSLLAATFAITGCDQSSETPDNAATISIEHAQGTTLVPLNPQKVVILNPSVLDNADALHIKVAGVPQTSTHLPAFLSKYSGPEYMNTGTLFEPDYEALSQAKPDLIIAGGRAQDAYNKLSAIAPTIALDVDTQHFTQSLTQRTEQLASIFGKEEEAKTLLGNFSSQVNAIKQKSANAGSAMVLMISGGKMSAYTPGSRFGFIFDELGFTPAATFAESGRHGNVVTSEFILNANPDWLFVLDRDNAIGRTEGQSAQQVLDNPLIHKTKAWQNDRIVYLDSASLYIAGGVQSYTQLMNKVSAILDKPVSEQ | not soluble |
